Earlier results on one substance are cited in EP0259891B1, “[Leu 13] motilin, DNAs coding for same and methods for producing same” (KYOWA HAKKO KOGYO CO., LTD., priority 1986, dated 1995).

For this data set the following is noted: 13th amino acid Met oxidised; M. Fujino et al., Chem. Pharm. Bull., 26, 101 (1978).

For “motilin: physiologically active peptide occurring in the mammalian blood, composed of 22 amino acid residues, 13th amino acid Met”, the “motilin activity after oxidation of Met to the sulfoxide form” value is given as “decreased motilin activity”.
